The target of this experiment is T1, human TfR ECD (human, UniProt P02786 89-760).
T1 construct: extracellular domain; also called Human Transferrin Receptor 1 extracellular domain
The experiment can be described thus: SPR (Biacore 8K), human TfR ECD amine-coupled on CM3 chip, 25 C, 2-state model. The method, then:
Target human TfR ECDs were immobilized on a CM3 chip (Cytiva P/N BR100536) using standard NHS-EDC amine coupling. The TfR binding proteins were prepared at a final concentration of 1.8, 0.6, 0.2, 0.067, 0.022, 0.0074, 0.0025 μM respectively by dilution of stock solution into running buffer.
Binding analysis was performed in a single-cycle or multi-cycle kinetics manner. Each analysis cycle consisted of (1) injection of the lowest to highest concentration proteins over all flow channel at 50 μL/min for 200 seconds followed by return to buffer flow for 900 seconds to monitor dissociation phase; (2) regeneration of chip surfaces with injection of 3M magnesium chloride, for 30 seconds at […] over all cells; and (3) equilibration of chip surfaces with a 50 μL (30-sec) injection of HBS-EP+. Data were processed using standard double-referencing and fit to a 2-state binding model using Biacore 8K Evaluation software, to determine the association rate (kₒₙ, M⁻¹s⁻¹ units), dissociation rate (koff, s⁻¹ units), and Rₘₐₓ (RU units). The equilibrium dissociation constant (KD) is calculated from the relationship KD=koff/kₒₙ, and is in molar units.

B1: TBP5 (Fab1-One Arm Heteromab 2, S124C) (antibody, human IgG4 S228P, kappa, F234A L235A)
heavy 1: EVQLVESGGGLVKPGGSLRLSCVASGFTFSSYSMNWVRQAPGKGLEWVSSISSSSSYIYYADSVKGRFTISRDNAKNSLYLQMNSLRAEDTAVYYCARRHGYSNSDAFDNWGQGTLVTVSSASTKGPCVFPLAPCSRSTSESTAALGCLVKDYFPEPVTVSWNSGALTSGVHTFPAVLQSSGLYSLSSVVTVPSSSLGTKTYTCNVDHKPSNTKVDKRVESKYGPPCPPCPAPEAAGGPSVFLFPPKPKDTLMISRTPEVTCVVVDVSQEDPEVQFNWYVDGVEVHNAKTKPREEQFNSTYRVVSVLTVLHQDWLNGKEYKCKVSNKGLPSSIEKTISKAKGQPREPQVSTLPPSQEEMTKNQVSLMCLVYGFYPSDIAVEWESNGQPENNYKTTPPVLDSDGSFFLYSVLTVDKSRWQEGNVFSCSVMHEALHNHYTQKSLSLSLG
light: DIQMTQSPSAMSASVGDRVTITCRASQGISHYLVWFQQKPGKVPKRLIYAASSLQSGVPSRFSGSGSGTEFTLTISSLQPEDFATYYCLQHNSYPWTFGQGTKVEIKRTVAAPSVFIFPPSDEQLKSGTASVVCLLNNFYPREAKVQWKVDNALQSGNSQESVTEQDSKDSTYSLSSTLTLSKADYEKHKVYACEVTHQGLSSPVTKSFNRGEC
heavy 2: ESKYGPPCPPCPAPEAAGGPSVFLFPPKPKDTLMISRTPEVTCVVVDVSQEDPEVQFNWYVDGVEVHNAKTKPREEQFNSTYRVVSVLTVLHQDWLNGKEYKCKVSNKGLPSSIEKTISKAKGQPREPQVYTLPPSQGDMTKNQVQLTCLVKGFYPSDIAVEWESNGQPENNYKTTPPVLDSDGSFFLASRLTVDKSRWQEGNVFSCSVMHEALHNHYTQKSLSLSLG
notes: One-arm heteromab, hIgG4 PAA, tested as the unconjugated protein; also called OAH2
As to B1, the equilibrium dissociation constant (Kd) (commonly the constant that tells how readily two partners part at equilibrium) was 12.4 nM.

B2: TBP8 (Fab2-VHH) (Fab)
heavy: EVQLVESGGGLVKPGGSLRLSCVASGFTFSSYSMNWVRQAPGKGLEWVSSISSSSSYIYYADSVKGRFTISRDNAKNSLYLQMNSLRAEDTAVYYCARRHGYSNSDAFDTWGQGTLVTVSSASTKGPCVFPLAPSSKSTSGGTAALGCLVKDYFPEPVTVSWNSGALTSGVHTFPAVLQSSGLYSLSSVVTVPSSSLGTQTYICNVNHKPSNTKVDKRVGGGGQGGGGQGGGGQGGGGQGGGGQEVQLLESGGGLVQPGGSLRLSCAASGRYIDETAVAWFRQAPGKGREFVAGIGGGVDITYYADSVKGRFTISRDNSKNTLYLQMNSLRPEDTAVYYCGARPGRPLITSKVADLYPYWGQGTLVTVSSPP
light: DIQMTQSPSAMSASVGDRVTITCRASQGISHYLVWFQQKPGKVPKRLIYAASSLQSGVPSRFSGSGSGTEFTLTISSLQPEDFATYYCLQHNSYPWTFGQGTKVEIKRTVAAPSVFIFPPSDEQLKSGTASVVCLLNNFYPREAKVQWKVDNALQSGNSQESVTEQDSKDSTYSLSSTLTLSKADYEKHKVYACEVTHQGLSSPVTKSFNRGE
As to B2, binding was characterised by a dissociation constant (Kd) of 18.6 nM; the dissociation rate constant (koff) (in general, a measure of how fast the partners let go of each other) came to 0.00671 s⁻¹; the kon (commonly the rate constant with which the complex forms) came out at 361000 M⁻¹ s⁻¹.

(Values after patent US20250381284A1 (Eli Lilly, published 2025).)
